Measurements taken from the DeepSol protein solubility set.

Assay: soluble on expression in E. coli; label from the status in PepcDB or PDB records

Row | Sequence | soluble on expression in E. coli
1 | MGSDKIHHHHHHMNKPKVPPTITEQPDEQTFAYLLAHIQQTRQQVFAQVNTALIELYWSVGKTISEKVVSAGWGKGVVKQLAAYLASQAPDIKGFSDKNLWRMKQFYETYQHDIKLASLVRVLPWTHNTIIFSRCKSNREREHYLMLVQRERLSSRELERHINAAHFERSLIEQPKLSAVLRQSHPIANTIFKDNYTLEFLGLPSSHSESDLQKAIINNLKTFILELGKDFIFIDEEYRLQVGNQDFYIDLLFFHRGLAALVAFELKIGKFSPQHLGQLDFYLEALDRDVKKPHENPSIGVLLCRDKDDEVVEYALSRNLSPTLVAQYQCQMPDKQLLQAKLHQLLQDLPAQDELASQHMTEQMPRQGEYNE | not soluble
2 | MSLVTSMTFYETRFPEDISYGSTGGPEFTTSIIETNNGYEYRKINISYPRNKYNIMYSVKSEEELLKLINFFYIHKGKAIGFRFKDWADYKAIQQKIGIGDNHQTTFQLVKTYKVDQFSYIRTITKPVINTVKIYYNDSIKNNGFSVNLSNGQIKFDIAPKDGIEIFADYEFDVPVRFDSDYLPYSIDNYKQYNCNNITLIEVKTEGHHHHHH | not soluble
3 | MGSDKIHHHHHHMRANRIGYVYSNKRFAGELLEFNTLEGYEYSFTYAASYIASGLPQIGYKLPITHEPYRRNYLPPFFANLMSEGWVRRHQARIARLDQDDKFGLLLGNGAELIGPVSVFTEYRGDNISAAIEVIAVPMKSLKGYQIDFPRCEFNEVAMESLGGVSISGVQPKMFLTYAEGNPKTLTNAVGMGPYIVKPSPNDFPELAENEFMVMQLCKAVGFNVAEHHLVPFSCGQLAYVTARFDLDRETGRRHEFIEDLASALNVAPGNKSSDTLSYEKAIKEAYQLSGGHVQLLKDGFLQVLMAYIVGNNDLHLKNISLSRASDSNRASGYTPIYDMVSVAPYRQYDNSGELSIWLLESEVERGFSTSSYEHYGYYTGHDFITFAEAIGLGERAGKVLMNDLGKKVAKARDKVIANAPGSEQLKQIISERITARLSTLTRPALR | not soluble
4 | AHHHHHHGSPKIGIIGGSGVYGIFEPKETVKVHTPYGRPSAPVEIGEIEGVEVAFIPRHGKYHEFPPHEVPYRANIWALHELGVERVIAVNAVGSLKEEYKPGDIVIIDQFIDFTKKREYTFYNGPRVAHISMADPFCPELRRIFIETAKELNLPVHEKGTYICIEGPRFSTRAESRMFRQFADVIGMTLVPEVNLARELGMCYVNISTVTDYDVWAEKPVDAQEVLRVMKENEEKVQKLLKRAIPKIPEERKCGCADVLKTMFV | not soluble
5 | MSLQDLTINAIGAQGDGLARTADGKPAFVPLTLPGEVVRAKMDGARGEVVEILAPSPERVAPACRHYGVCGGCALQHWAAEPYRAWKAEQVRLQLSMEGLETEILPTFAAPPASRRRVALHARKGGKGQGARLGFKERRSWNLVSIEECPVTDPRLVAALPALARLAEPFLEHPKSAPTLHVTLTATGLDIDITGVERKSGGLSADARMRAAMAAGEGDFARVTLAGETIYGARQPLVKLGQAVVALPPGSFLQAVPAAEKAMVELAVAEAQGASRVADLYCGVGTFTFPLAEVAQVYAAEMSAPAITALKAAIGGAPGLKPITAEARDLVRRPVLSTELAKTDVVVIDPPRAGAAEQTVEIAKSKVAKVLGVSCNPQTFAKDARVLVDAGFKLVRVTPVDQFVWSPHIELVGVFTREGHHHHHH | soluble
6 | MGSDKIHHHHHHMETTKLGNLKLYGAGHAAGGAYHNVSIKGEGIVGEGLSAVGCRIYGTGLFLGKAETERLRVLGESECKGDLTAGKINIYGTMKVSGSLQFDRFNLKGQTEIGGNMTGESCDVKGKLSVIGDCETEMFHVTGCVDVSGLLNSGEIKLGLSHDINHVQEIGGTTITVKRRASFFSRKKGKLIADVIEGDRVYLENTEAAVVRGKEVIIGPGCSIGTIEYEYKCECDPHSQIKEKTKL | not soluble
7 | MTYFVVEVTDQEIRREKDKARELRRSRWWQTVISRRTCHWCGGDFPPEELTMDHVVPIVRGGKSSRGNVVPACKECNNRKKYLLPLEWEEYLEKARNGGEQLEHHHHHH | soluble
8 | MLGGYAHRIARIDLSTGQVEYFAPDPKDLEMYVGGRGLGVKYVFENGPQVDPLGPENLLCIMNGPLSGTRAKMSGRLAVVTKSPLTGTVTDSHMGGWTAAKLKWAGFDGLLIKGASEKPVYLLVKDGEVSIHDASDLWGKTTHETCRILRERHGEEADVMAIGPAGENLVRFANWINNDERAAGRGGTGAVAGSKKLKAIVVVGTHDKMPQPKDPELWKEADRLASATINDPKNVTAPKKGGLSLYGTNVLMNITNVMGALPTFNAQHTCIEGAEKISGEYIREHRLIKDNTCHACPVACKKMVEVHINGKTIRFESYEYESAWALGAHSGHTDTDWTGYAIYLCNAYGMDTIEAGNAIAVLMEATEKGYYQGEDGIRFGDKEGEIRVLEAIAYRKGVGDMLAEGPARFAKAIGHPEIALEVKGQSIPAYDPRGLKGMGIAYATSNRGACHLRAYTPASEILGVPYKTDPLAWEGKGKLTKLFQDLSAFTDSLDLCKFSQFAEGPEEYAKQLAAYWGRPVTPEEILRIGERIYNLERYYNNLAGWGEGSDYLPERFLKEPSDCAGSKGQVTELDRMLEEYYRERGWERGVVPPAKLQELGILSQAADD | soluble
9 | MKYKAVLVDFGNTLVGFKPVFYEKVYQVLKDNGYDLDLRKVFRAYAKAMGMINYPDEDGLEHVDPKDFLYILGIYPSERLVKELKEADIRDGEAFLYDDTLEFLEGLKSNGYKLALVSNASPRVKTLLEKFDLKKYFDALALSYEIKAVKPNPKIFGFALAKVGYPAVHVGDIYELDYIGAKRSYVDPILLDRYDFYPDVRDRVKNLREALQKIEEMNKE | soluble
10 | SLENLATAPVNQIQETISDNCVVIFSKTSCSYCTMAKKLFHDMNVNYKVVELDLLEYGNQFQDALYKMTGERTVPRIFVNGTFIGGATDTHRLHKEGKLLPLVHQCYLKKSKRKEFQ | soluble
11 | MAHHHHHHMSLPIIRLRTVNSNHATAAYDPVTASCTLYGFLRSVPSRFECDMAMSDFKRGVQAAQGQKCLAKNNANMLNRVFSSVQDRLLRELPKIIPQLARNSSTWRRLLSGAESTSSMSSTPTATRLQDNARSLHNEESTQPSIPSTPLPSAGTGENGNKGNHKNGDHHSSAEEILVEETVSTTSTRFKSPYEQIPPPIHLTASEHKESRATGGMQGEAGERKDASTVVEHRGKGNNLPGKGYRPHPLLLAILERVRSSCSAEENESDREEREFTTIMESREKALRTKLSSAYSMIPPEEKNFKGFLREMEARVAVAQKLFEVQKFEETTIRTTECALKIEVATMRALLHQIVDAVAEAEERHEREGPRSPYYAEECHVMAAIQQALDDLAS | not soluble
12 | MPEALRTQIDELNSWIYDKVNNGVYKAGFATTQSAYDESASTVFAALSDLETILAKQRYLTGEQLTEADLRLWTTLIRFDPVYHTHFKCDKYRLSDYPNLFGFLRDIYQMPGIAETVDMAHIRHHYYRSHGTINPHGVISLGPEQDLNQPHQRDKKFVDLYLEHHHHHH | soluble
13 | MGSDKIHHHHHHVVIGFFKKLFNVRDRNEQAKFTGITTAEKRQQTKPQTPVPAIEVTEHQAVESQLDLSALFYSLLFATPSTTTTGIANNLERSVMQNIEQALSSPQSIAENVLKLPSKILELDKKLGDDNIETQELILLIEQDPLLCVEVLKLCNSPAFKRADTDVSSIQQALVQVGRQQLRQFITACLARELIDIKPIYFRRFGAEIWRHSMQVAFLASELASNEQRDSAFLLGLLHDVGKIAIFKMLVDAFYQAEPGEQPNSILFKQVMTTKSLTLSALLARSWQLSQHFETPLTLLANTNIKPTDGMTLLIWKANIISECSMLLQVDKLPQPALAVLLAQVECSEEDFIELHQKLIQF | not soluble
14 | MSLKQKSSGKSVIITGVTQGLGRAMVDRFHELGWNIYGCGRSKDKIEELKKYYGNTHVFQIIDVSDSQQVSDWANYILHRNRAPDLLINNASIVNKNAPLWKVTAEEFENVMNVNVNGVVNVIRAFVPAMVARKAGMIINMSSSWGREGEAELAPYCASKFAIEGITKSLALELPYSMAVVALDPGGSISTPMLYSCAPQYVNESPTPEMWSQHAIPYILKITIDKNGASLTCPECTEGHHHHHH | soluble
15 | MRGSHHHHHHMSDEEHTFETADAGSSATYPMQCSALRKNGFVVIKSRPCKIVDMSTSKTGKHGHAKVHLVAIDIFTGKKLEDLSPSTHNMEVPVVKRNEYQLLDIDDGFLSLMNMDGDTKDDVKAPEGELGDSLQTAFDEGKDLMVTIISAMGEEAAISFKEAARTD | soluble
16 | MSQEKTGLQRPVLAQLSPIAIRGHSDEGVKKLRRRNDDGCFGEALFKGNAPARSLLFGDDACHRRVENLYLLDNNPTNWSGIKTNLKREIPLLQDPTETFARMNKVMHQTLKYVKEVESINFSSRGVIDFNGEVMEDHQRIFLSVCTSVFANFSFSCQMDVEKLLSFLMALFENYSKENAYHNALHAADSVQMLFLILREKPATLIFTENEVILAFLATLSLGFVHPGVSNAFLARIDHPLVLVYGDMTTQQSAGLTALLYLLNREENRFIDLFANSGTQPFSQFLREILVETVLGTAPRLRSSLLRDLEKVAVADAVELNDIPILLAAVVILADNALALRPHAQFVNLAGLMVTEWLREAYEEEQRGMDPLVPNLRKQIYENGLGMAVDYCKVWLRPLITNIRALVPQDLYDNMEGNTEAPSMSEIQDFLVHLDSSNERWNDGSVPVIDIIRRITMHATSLDRKASKRAILNAASNRAVSGFLSRSSSMCLSPNGARMSAEVSEKKINQQPSRCEHYFSFLRLYDTYEKEGRPAAEFAAQLVFLALQLNPEYIGRYTHKGIDVCSKEECEEIAELIMKKEEAPTTAEVIASPLRDGEQTDGFILRLMEMYAERDRERERNDTLNSATNPTSNLRRTLKCYNPVYGGMYSGKKS | soluble
17 | LPSSPPAEEAIIDWPVALRQSANKEDLAKEMLGMLVDYLREVETVVNTALEDEEYPASDLLHHIHKLHGSCSYSGVPRLRKICASLEQALRNGASIDELEPELFELQDEMAKVLEASRDYLN | not soluble
18 | IGFQRGAQGEGLVVIDLQGTNTPVDVQQQGSKVVVRFPGIKIPTHLARRLNTTDFATPVASIDSYNDGSNGVISIQSTGSYEYMAYQAENKLTISLKRPQDNV | not soluble
19 | MSLSLGISCFLVKKKSILNKDFESKEKLSSQTFEPEKVEKFLWDIYDKYGFDFTEYRKDSIIRRIKISMLRYCMTNFDEFSHLALTDQDVFEQLFLDFSINTTNFFRDPEVFMFLREKVLLFLDSYSHIRIWCVGCSNGKEPYSLAIILKELGMLHKVQIYATDINPYVIEEAKNGLYSVSTINTDIANYKKSGGSKNFTDYFEVNGNYMKVKDDFKDNILFFQHSVIEKGILNEFQMILCRNVMIYFDIPLQKKVLRHFYNSLDSGGFLVMGKSEGMLLNNGYEYFADYNEKYSVYRRKEGHHHHHH | not soluble
20 | MGSDKIHHHHHHMTPTADIWFKDTLAAHFTRDGDQTTFSYTADYAGPPIATSLPINSEPVITRSGAIPPFFAGLLPEGRRLSSLRRNIKASADDELSLLLAVGADPVGAVAIFPHGENPQPAPPTVDFDDELDFSAALTESGIADPVALAGVQDKASARTIAVPVASDAILKLSPPEYPYLVENEAACYQLLTKNKLRIELSKVEVLHDKHGRSGLLVHRFDRTPKGKIPVEDAGQVLGIWPADKYLVSYEDIAQALTKVCASPILAMRNLAFQIAVAWLSGNGDLHAKNISIINKGRGFEISPIYDIPATAVYGDTTMALEIQGSKKDLSQKKFLKFCTSIGLPEKTAMSVANAALLATENAAETILASGNFDTRMNRDLARVLKHRRSAWGA | not soluble
